From article PMC11464722 (Nature Communications, 2024)

Biological target: SNAP-tagged murine µOR on HEK293 cells (murine, UniProt P42866, SNAP-Lumi4-Tb (terbium cryptate) on the SNAP tag)
Assay: AlphaScreen or HTRF

Chain of SNAP-tagged murine µOR on HEK293 cells (P42866 whole entry): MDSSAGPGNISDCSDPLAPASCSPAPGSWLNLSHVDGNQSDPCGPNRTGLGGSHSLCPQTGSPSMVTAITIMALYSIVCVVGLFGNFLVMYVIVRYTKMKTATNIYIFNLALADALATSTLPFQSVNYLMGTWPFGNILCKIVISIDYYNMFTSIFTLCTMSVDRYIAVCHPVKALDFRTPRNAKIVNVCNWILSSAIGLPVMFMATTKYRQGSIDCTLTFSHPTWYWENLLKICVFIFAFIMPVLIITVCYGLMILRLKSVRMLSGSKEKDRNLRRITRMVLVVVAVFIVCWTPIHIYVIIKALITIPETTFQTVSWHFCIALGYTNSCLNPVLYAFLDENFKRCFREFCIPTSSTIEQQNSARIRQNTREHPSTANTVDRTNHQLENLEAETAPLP

B1: mNbE (N45K, Q117K, Q120P)-6xHis (VHH)
VHH: QVQLVESGGGLVQAGGSLRLSCAASGSISSISTMGWYRQAPGKERELVAAITSGGSTNYADSVKGRFTISRDNAKNTVYLQMNSLKPEDTAVYYCNFKYYSGSYFYKSEYDYWGKGTPVTVSS
binding result: binds
